Data reported in the DeepSol protein solubility set.

Assay: soluble on expression in E. coli; label from the status in PepcDB or PDB records

| Sequence | soluble on expression in E. coli |
| --- | --- |
| MALTTRRRALTTLGAALTGAVALPAGTALASQGGHGPRPLWRAHAHNDYEHPRPLLDALDHRFGSVEADIYLVGGQLLVAHDPEDLDPSRTLESLYLDPLAARVRAHHGRVYRRDRGSLQLLIDIKTEGEATYLELDRRLRRYKNLFTSYAHGRVFPGAVTAVVSGDRAARAPMAAQRSRRAFYDGRLTDLGTVAPASFVPLISDNWTLNFTWQGVGTFPAAERRRLRDIVGAAHARGQRVRFWATPDVAGPARDAVWAELLAAGVDHLNTDDLAGIEAFLDAHRDALEHHHHHH | soluble |
| MALVPVYCLCRQPYNVNHFMIECGLCQDWFHGSCVGIEEENAVDIDIYHCPDCEAVFGPSIMKNWH | soluble |
| MALVVQKYGGSSLESAERIRNVAERIVATKKAGNDVVVVCSAMGDTTDELLELAAAVNPVPPAREMDMLLTAGERISNALVAMAIESLGAEAQSFTGSQAGVLTTERHGNARIVDVTPGRVREALDEGKICIVAGFQGVNKETRDVTTLGRGGSDTTAVALAAALNADVCEIYSDVDGVYTADPRIVPNAQKLEKLSFEEMLELAAVGSKILVLRSVEYARAFNVPLRVRSSYSNDPGTLIAGSMEDIPVEEAVLTGVATDKSEAKVTVLGISDKPGEAAKVFRALADAEINIDMVLQNVSSVEDGTTDITFTCPRSDGRRAMEILKKLQVQGNWTNVLYDDQVGKVSLVGAGMKSHPGVTAEFMEALRDVNVNIELISTSEIRISVLIREDDLDAAARALHEQFQLGGEDEAVVYAGTGR | soluble |
| MALYQRWRCLRLQGLQACRLHTAVVSTPPRWLAERLGLFEELWAAQVKRLASMAQKEPRTIKISLPGGQKIDAVAWNTTPYQLARQISSTLADTAVAAQVNGEPYDLERPLETDSDLRFLTFDSPEGKAVFWHSSTHVLGAAAEQFLGAVLCRGPSTEYGFYHDFFLGKERTIRGSELPVLERICQELTAAARPFRRLEASRDQLRQLFKDNPFKLHLIEEKVTGPTATVYGCGTLVDLCQGPHLRHTGQIGGLKLLSNSSSLWRSSGAPETLQRVSGISFPTTELLRVWEAWREEAELRDHRRIGKEQELFFFHELSPGSCFFLPRGTRVYNALVAFIRAEYAHRGFSEVKTPTLFSTKLWEQSGHWEHYQEDMFAVQPPGSDRPPSSQSDDSTRHITDTLALKPMNCPAHCLMFAHRPRSWRELPLRLADFGALHRAEASGGLGGLTRLRCFQQDDAHIFCTTDQLEAEIQSCLDFLRSVYAVLGFSFRLALSTRPSGFLGDPCLWDQAEQVLKQALKEFGEPWDLNSGDGAFYGPKIDVHLHDALGRPHQCGTIQLDFQLPLRFDLQYKGQAGALERPVLIHRAVLGSVERLLGVLAESCGGKWPLWLSPFQVVVIPVGSEQEEYAKEAQQSLRAAGLVSDLDADSGLTLSRRIRRAQLAHYNFQFVVGQKEQSKRTVNIRTRDNRRLGEWDLPEAVQRLVELQNTRVPNAEEIF | soluble |
| MAMRHLSRSRDVTKRSTKKYIEEPLYNRLFKDGGTEVKVRQQLNQFLKGTKHVFKWEVGDTIKKLRNRGLYYPALKLSEVMEERGMNKTVSDQAIHLDLVAKAREITAGENYFVDLPETSKTELTYGSLLNCYCKELLTEKAEGLLNKMKELNITPSSMSYNSLMTLYTKTGETEKVPAMIQELKAENVMPDSYTYNVWMRALAATNDISGVERVIEEMNRDGRVAPDWTTYSNMASIYVDAGLSQKAEKALQELEMKNTQRDFTAYQFLITLYGRLGKLTEVYRIWRSLRLAIPKTSNVAYLNMIQVLVKLNDLPGAETLFKEWQANCSTYDIRIVNVLIGAYAQEGLIQKANELKEKAPRRGGKLNAKTWEIFMDYYVKSGDMARALECMSKAVSIGKGDGGKWLPSPETVRALMSYFEQKKDVNGAENLLEILKNGTDNIGAEIFEPLIRTYAAAGKSHPAMRRRLKMENVEVNEATKKLLDEVSQDV | soluble |
| MAMTLAEKILAKASGNTQVSPGDIVMAKVETAMVHDITGPLSVNTLKKEGISKVWDNEKIVIPFDHQIPADSINAAENHILMRNFVKEQNIKHFYDIREGVCHQVLPEKGHIVPGTVVVGADSHTCTYGAFGAFATGIGSTDMAAAFATGELWFKVPET | not soluble |
| MAMYEQRYNSPFLVHDDGPNAPLEHQFAISKLTFELGLLYYQKRTIPFIPLPETPLNEGPGHAVPDVILYDAVAEDTKVIIEVCQNNGQKNDLKKVIRLIEDTEYGILEGFVYNYKSREWFRYRKGDGGAATASSVSEVMGIDMGGFV | not soluble |
| MANFIEKITYLGTPAIKAGNEHLEMIVVPEWGSNVISLVDKTTNVQLLREPETAESFHDTPTLYGIPILFPPNRISDGTFSFRGRTYHFDINEKDKHNHLHGFLYHEKWNVVTTKQTDEGVIVETEIDLSELPHVQKQFPHHAVVRMTYTIKENTLFKHATVMNKGKEAFPWGIGYHTTFIFPAESSLFSLTADQQWELDERLLPTGKLMDVPYKEALHEGMDLRHKQLDDVFLSSYQKRGGENQAVIYHQHAHISIIYKADEQFKHWVVYNADGKQGYLCPEPYTWVTNAVNLDLPSSLTGLQVLEPGEETTAKSSITIELNHQLEHHHHHH | soluble |
| MANGKSKNTKKDGVDKKKTSKTKKKSNLSISKSQTSVDMNEKDKSKEAKEAKELKEKKAKEEAEKKVVATPKKDASKDQAKKEEDPNKQNEPSGMDVLVKEDGKKTKMDDGYEDFGPGAGAAQ | not soluble |
| MANLDDELALFESELAELEQASSNSEEPASSQTHVGYDNATISAGPTTSESSAATSSAQVIQPSLLAAPPFIPIAATIAVSPFINPALGRLPTMPPVPPSIFMPPQLRAAPIMFPPRVLGIPAPATIEGAPALYETPAVNAIPQELLRTQALQSDIDKMNFKKQTDPFKKKIKEQQAKKKFVRSGGGQVWEDPSLAEWDENDFRVFCGDLGNEVSDELLAKAFRKYPSFQKAKVVRESRTNKSKGYGFVSFRDSEDYVRAMREMDGKYVGNRPIKLRKSAWKERNIDVIKQKRKQKKELGIL | soluble |
| MANSETSLQARLWKTLSQSPDVRLWRNNVGTCKAADGRFVRFGLCPGSSDLIGLTRVTITPDMVGQTIALFTAIEVKTPTGRVTPEQQSFIDFVQRSGGRAGVARSMQDANKIISGEGHVLEHHHHHH | not soluble |
| MANTLFDKIWDAHVVQKVEEGPTQLYIDRLYCHEVTSPQAFAGLRARGVKVFRPDHVYCMPDHNTPTHDQDKPIEDPVSKTQVDTLAKNAKDFGLAHFGMMDKRNGIIHVVGPERGLTLPGMTIVCGDSHTSTHGAMGAVAFGIGTSEVEMVLASQCILQSRPKT | not soluble |
| MANVAFGFQEAVFTLESMVANIERQAQTIEKLINENKQLRQENQQLKARIAELEARTKKNSTNSHFPPSSDRFGAKSPSRPPSEKRPGGQPGHQGTTLRQSPNPDHRVLHRVTQCKGCGHSLEHIDPLQVDIRQVFDLPVVRMEVTQHEREIKRCPECRLVQQAEFPFYVTNHVQYGPAVTSLILYWNHAQLIPCERVTEMVKALTGHSMSAGTVVNMTRRWQPVAEAAIEEIEAALLTSSTLHVDETSLRVKGTKQWVHVASTSKETRYGIHRSRGKQATDDIGILPRYKGTMVHDAYAVYPMYTQASHALCHAHHLRELREYTELYHHSWSNKMAEALLEMKQAVEKAGGALPEEKVRYWEAVYDELLSNGRQELDERCRQGNYLGVRKAEHFIRRLEKRKQEALLFLRKKEVPFDNNQAERDLRMVKVKQKISGTFRQEDDAEAFCVIRSVVSTLQKHGKPVWESLQRLLSGESLQTILQSS | not soluble |
| MANVQSGKMIVGLDIGTSKVVALVGEVAADGSLEIVGIGTHPSRGLKKGVVVNIESTVQSIQRAIEEAQLMAGCRIHSAFVGVAGSHIRSLNSHGIVAIRDREVSAADLERVLDAAQAVAIPADQ | not soluble |
| MAPENHDGEKHFAEIVKDFGETSMNDNGLDTGEQAKAFAWGKVRDALSQQVNQHVESWLSPWGNASVDVKVDNEGHFTGSRGSWFVPLQDNDRYLTWSQLGLTQQDNGLVSNVGVGQRWARGNWLVGYNTFYDNLQDENLQRAGFGAEAWGEYLRLSANFYQPFAAWHEQTATQEQRMARGYDLTARMRMPFYQHLNTSVSLEQYFGDRVDLFNSGTGYHNPVALSLGLNYTPVPLVTVTAQHKQGESGENQNNLGLNLNYRFGVPLKKQLSAGEVAESQSLRGSRYDNPQRNNLPTLEYRQRKTLTVFLATPPWDLKPGETVPLKLQIRSRYGIRQLIWQGDTQILSLTPGAQANSAEGWTLIMPDWQNGEGASNHWRLSVVVEDNQGQRVSSNEITLTLVEPFDALSNDELRWEP | not soluble |
| MAPKAEKKPSEKAPKADKKITKEGGSERKKKTKKSTETYKIYLFKVLKQVHPDIGISGKAMGIMNSFINDTFEKIALESSRLARYNKKPTITSREIQTAVRLVLPGELAKHAVSEGTKAVTKFTSS | not soluble |
| MAPLGASPRLVLLFSGKRKSGKDFVTERLKSRLGGNICALLRLSGPLKEEYAREHGLDFQRLLDASTYKETYRRDMICWGEQKRQADPGFFCRKIVEGVSQPIWLVSDTRRTSDIQWFQEAYGAVIQTVRVVASEQSRQQRGWVFTLGVDDAESECGLDNFGNFDWVIENHGDEQCLEDQLEHLLGFIQAKL | soluble |
| MAPLNYKTITSRSILSKVLVRATQQWPTDKTLNKQLSELYGAYVNSFVSKFKDKHVITISLEVVNEKFLKDKTPLFEKGLDTLKEIIWNPLIKDRCFDHTYVAQEKSLLSKKLEAMEDNKAQYSFLQLMNYMFKQEPYRYIATGQLEQIPQVTSESLYDTYLSMVQNDDCAIYVVGNINKEEVTQLILDKFAIKPFYLENKESTEITPSFDQPQYIIEKDDVDQAKLNLGYRFPSYYGKSNYYAFIVLNMMFGGDPSSVLFNEVREKQSLAYSIHSQIDGKNGFLFVLSGVSAEKYEQAKDTVIKEFDKIKNGDFDSNKIELAKKIIISHRHEASDRPKSIIEILHNQLLLNRQQTDQDFINAVNQVTKKDVIKLANEAVLDTIYVLTKGDQH | not soluble |
| MAQHPPYCRNQPGKCQIPLRDLFDRAVVLSHYIHNLSSEMFSEFDKRYTHGRGFITKAINSCHTSSLATPEDKEQAQQMNQKDFLSLIVSILRSWNEPLYHLVTEVRGMQEAPEAILSKAVEIEEQTKRLLEGMELIVSQVHPETKENEIYPVWSGLPSLQMADEESRLSAYYNLLHCLRRDSHKIDNYLKLLKCRIIHNNNC | soluble |
| MAQISGNQTGIGSIHPLLHQNTSDFSEQKFSSVFTGDEFFLRDHVVRGKPVLPGVAYLEMAYAAINQAAGSEIGQDVRIRLNHTVWVQPVVVDRHSAQVDISLFPEEDGKITFDIYSTQEDGDDPVIHSQGSAELASAAETPVADLTEMSRRCGKGKMSPDQFYEEGRSRGMFHGPAFQGIKNVNIGNREVLAQLQLPEIVSGTNEQFVLHPSIMDSALQTATICIMQELTDQKLILPFALEELEVIKGCSSSMWAYARLSDSDHSGGVVQKADIDVIDESGTVCVRIKGFSTRVLEHHHHHH | soluble |
| MAQLAKTAVAALSKKLVAPAAVARRTLATEASPEDYGYYPDPLEHATGREKKMLLARLAGDDRYEPKVYYRAEASTKQKPNLVPSHYDFRIIGCMCEQDSGHVNFMTIRKGDPKRCECGHWFKGVDADPESI | not soluble |
| MAQLFFKYGAMNSGKTIEILKVAHNYEEQDKPVVLMTSGLDTRDGVGKVSSRIGLRRDAIPIFEETNVFDLINDLSYKPFCVLVDECQFLNKHHVIEFARIVDELDIPVMAFGLKNDFRNELFEGSKYLLLYADKLEELKTICWFCHKKATMNLHYIDGNPVYEGDQVQIGGNEAYYPVCRKHYFHPKTVNEEQ | not soluble |
| MAQLTHINAAGEAHMVDVSAKAETVREARAEAFVTMRSETLAMIIDGRHHKGDVFATARIAGIQAAKRTWDLIPLCHPLMLSKVEVNLQAEPEHNRVRIETLCRLTGKTGVEMEALTAASVAALTIYDMCKAVQKDMVIGPVRLLAKSGGKSGDFKVEADD | soluble |
